Assay results reported in US20160311886A1, “Constructs Binding to Phosphatidylserine and Their Use in Disease Treatment and Imaging” (Board of Regents, The University of Texas System, priority 2005, published 2016).

T1: human β2GPI (Homo sapiens, UniProt P02749)
T1 construct: Human β2GPI (hβ2GP1) was purified from human plasma essentially as described previously; from tissue; host or cells: pooled human plasma
T1 sequence (P02749 20-345): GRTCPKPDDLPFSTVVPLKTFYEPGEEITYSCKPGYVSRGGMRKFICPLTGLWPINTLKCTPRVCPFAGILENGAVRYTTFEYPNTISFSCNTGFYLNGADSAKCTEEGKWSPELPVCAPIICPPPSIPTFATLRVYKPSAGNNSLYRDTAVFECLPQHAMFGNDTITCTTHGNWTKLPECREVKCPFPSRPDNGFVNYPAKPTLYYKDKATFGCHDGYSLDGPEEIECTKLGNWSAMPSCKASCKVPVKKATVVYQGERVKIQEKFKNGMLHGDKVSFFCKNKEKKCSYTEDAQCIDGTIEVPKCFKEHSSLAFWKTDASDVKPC

B1: 3G4: Mouse IgG3 kappa monoclonal antibody to PS and anionic phospholipids; binding mediated by β2-glycoprotein I (antibody, listed as Mus musculus)
VH: MGWTWIFILILSVTTGVHSEVQLQQSGPELEKPGASVKLSCKASGYSFTGYNMNWVKQSHGKSLEWIGHIDPYYGDTSYNQKFRGKATLTVDKSSSTAYMQLKSLTSEDSAVYYCVKGGYYGHWYFDVWGAGTTVTVSSATTTAPSVYPLVP
VL: MDMRAPAQILGFLLLLFPGTRCDIQMTQSPSSLSASLGERVSLTCRASQDIGSSLNWLQQGPDGTIKRLIYATSSLDSGVPKRFSGSRSGSDYSLTISSLESEDFVDYYCLQYVSSPPTFGAGTKLELKRADAAPTVFIFGRIP

How the values were obtained:
[1] = test system: tumor and normal vascular endothelium; test: Biodistribution of 9D2 antibody and annexin V in tumor bearing mice; format: in vivo, mouse
Experimental: To detect externally-positioned phospholipids, methods were performed essentially as previously described (Example V; Ran et al., 1998). Tumor-bearing SCID mice were injected intravenously with either 50 μg of 9D2 or biotinylated 9D2 antibody or 100 μg of biotinylated annexin V. Sixty min later mice were sacrificed and their blood circulation was exsanguinated and perfused with heparinized saline as previously described (Burrows et al., 1992). All major organs and tumor were harvested and snap-frozen for preparation of cryosections.
Sections were blocked with PBS containing 10% serum. To prevent loss of phospholipids during slide processing, detergents and organic solvents were omitted from blocking and washing buffers. Rat IgM was detected using goat anti rat IgM specific)-HRP conjugate followed by development with carbazole or DAB (Fries et al., 1993). Biotinylated reagents were detected by streptavidin conjugated to HRP.
Tumor sections derived from mice injected with saline or rat IgM of irrelevant specificity served as negative controls. […] No signal was detected under these conditions. The number of positive vessels per high power field was determined at magnification of ×100. At least 10 fields per section were examined and the average percentage of positive vessels was calculated. […]
Structures with localized 9D2 antibody or annexin V were identified as blood vessels by morphological appearance on DAB-stained sections and by co-incident staining with the pan-endothelial cell marker, MECA 32 on serial sections of frozen tissues. Quantification on DAB-stained sections was done by counting vessels stained by MECA 32, 9D2 or annexin V in serial sections of a tumor. […] At least 10 random fields per section (0.317 mm^2/field) were scored in blinded fashion by two independent observers. The mean numbers and standard errors of vessels stained by 9D2, annexin V or MECA 32 were calculated. The mean number of 9D2 or annexin V-positive vessels determined in each tumor type group was compared to the mean number of MECA 32-positive vessels in the same tumor group. […]

MDA-MB-231 tumor vessels = test: Double staining of orthotopic MDA-MB-231 tumors; format: in vivo, mouse; conditions: biotinylated reagent i.v., one hour
Experimental: In further studies, mice bearing MDA-MB-231 tumors (0.3-0.7 cm^3 in volume) were injected intravenously with 50 μg of biotinylated 9D2, control IgM or annexin V (six mice per group). Biotinylated reagents were first incubated with streptavidin-Cy3 conjugate, washed in PBS, then incubated with MECA 32 antibody followed by FITC-tagged anti-rat IgG secondary antibody. Single images, taken with appropriate filters for Cy3 (red) and FITC (green) fluorescence respectively, were captured by digital camera and transferred to a computer. […] The same method was used to analyze tumors from mice injected with control rat IgM or saline. The percentage of vessels with localized 9D2 or annexin V was calculated as follows: mean number of yellow vessels per field divided by mean number of green (total) vessels multiplied by 100.
Double staining studies were also performed in which mice bearing orthotopic MDA-MB-231 breast tumors were injected intravenously with biotinylated 9D2 antibody, biotinylated control IgM or biotinylated annexin V. One hour later, the mice were exsanguinated, and their tumors were removed and frozen sections were cut. The tumor sections were then stained with Cy3-conjugated streptavidin to detect the biotinylated proteins and with FITC-conjugated MECA32 to detect vascular endothelium. […]

Meth A fibrosarcoma = test: 3G4 tumor treatment; format: in vivo, mouse
Experimental: Treatment was repeated 3 times a week. Animals were monitored twice a week for tumor measurements.
Groups of 8-10 female SCID mice were injected subcutaneously with 2×10^7 L540 cells or orthotopically with 1×10^7 MDA-MB-435 or MDA-MB-231 cells. BALB/c mice were injected subcutaneously with 1×10^6 Meth A cells. Tumors were allowed to grow to an average diameter of 0.8-1 cm (L540), 0.6-0.7 cm (MDA-MB-435), 0.5-0.7 cm (MDA-MB-231), or <0.1 cm (Meth A). […] Animals were monitored three times a week for tumor size and body weight. Mice were sacrificed when tumors in control mice reached a diameter of 1.5-2 cm.

tumors = test: 3G4 in syngeneic and xenogeneic tumor models (overall); format: in vivo; conditions: 100 μg i.p. 3 times a week
tumor cells = test: Direct inhibitory effects of 3G4 on tumor cells in vitro; format: cell-based
human β2GPI = biological target: T1, human β2GPI; test: Anti-hβ2GPI ELISA; format: binding
Experimental: (§1) The assay was performed as described above with the following modifications. hβ2GPI, nicked hβ2GPI, or recombinant hβ2GPI peptides were coated on 96-well Immunlon 2HB microtiter plates overnight at a concentration of 10 μg/ml. Plates were then blocked in 1% OVA for 1 hr. at room temperature. […] Plates were incubated for 1 hr. at 37° C. and antibody binding was detected. All ELISA studies were performed at least three times.

hβ2GPI domains = test: ELISA on recombinant hβ2GPI domain constructs; format: binding, human; conditions: constructs I-V, II-V, III-V, IV-V
Experimental: as §1
β2GPI has five domains, of which the fifth domain is responsible for binding to anionic phospholipids. […] These domain constructs were made by serial truncations from the N-terminus, and so lack each of the N-terminal domains in turn, as follows: recombinant full-length hβ2GPI contains domains I-V; hβ2GPI from which domain I has been deleted contains domains II-V; hβ2GPI from which domains I and II have been deleted contains domains III-V; hβ2GPI from which domains I, II and III have been deleted contains domains IV-V; and hββ2GPI from which domains I, II, III and IV have been deleted contains domain V only.

| Molecule | PS-positive vessels of MECA 32-stained vessels per field ([1]; B16 tumor) [%] | PS-positive vessels of MECA 32-stained vessels per field ([1]; L540cy tumor) [%] | PS-positive vessels of MECA 32-stained vessels per field ([1]; MDA-MB-231 tumor, one hour after i.v. injection) [%] | MECA 32 positive vessels that bound the reagent (MDA-MB-231 tumor vessels) | mice with long-term complete remissions (Meth A fibrosarcoma; Meth A-bearing mice) [%] | retardation of tumor growth (Meth A fibrosarcoma; syngeneic Meth A fibrosarcoma) [%] | toxicity in tumor-bearing mice (tumors) | direct inhibitory effect on tumor cells (tumor cells) | binding to hβ2GPI coated plate (human β2GPI) | β2GPI domain recognized (hβ2GPI domains) |
| --- | --- | --- | --- | --- | --- | --- | --- | --- | --- | --- |
| Annexin V: High affinity PS binding ligand; natural ligand binding anionic phospholipids and PE | 21.3 ± 6.6 | 16.7 ± 3.9 | 45.3 ± 5.6 | About 40% |  |  |  |  |  |  |
| B1 |  |  |  |  | 50 | 90 | No toxicity was observed | No direct inhibitory effect on tumor cells was observed | bound strongly | binds to β2GPI at domain II |
